Test results from publication PMC11612968, “Endo-bind-n-seq: identifying RNA motifs of RNA binding proteins isolated from endogenous sources”.

Biological target: T1, GST-ZC3H7B(415-956) (UniProt Q9UGR2 415-956)
T1 sequence: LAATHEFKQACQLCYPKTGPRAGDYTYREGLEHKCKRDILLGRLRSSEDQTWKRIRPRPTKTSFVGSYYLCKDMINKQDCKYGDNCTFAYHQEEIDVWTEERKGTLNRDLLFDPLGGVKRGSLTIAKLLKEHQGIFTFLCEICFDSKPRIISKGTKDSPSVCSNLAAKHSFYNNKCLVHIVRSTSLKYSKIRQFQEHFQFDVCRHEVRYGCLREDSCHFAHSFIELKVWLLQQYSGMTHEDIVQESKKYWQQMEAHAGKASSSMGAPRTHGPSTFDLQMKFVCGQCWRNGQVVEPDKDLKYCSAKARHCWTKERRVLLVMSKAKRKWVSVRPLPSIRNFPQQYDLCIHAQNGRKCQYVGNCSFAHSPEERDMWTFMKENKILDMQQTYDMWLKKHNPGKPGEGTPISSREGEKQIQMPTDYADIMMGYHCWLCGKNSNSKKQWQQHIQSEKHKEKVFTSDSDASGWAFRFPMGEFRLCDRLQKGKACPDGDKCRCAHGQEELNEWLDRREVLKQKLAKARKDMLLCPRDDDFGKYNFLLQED
Experiment: filter binding; Filter binding: 50 mM Tris-HCl pH 8.0, 150 mM NaCl, 5% glycerol, 20 C; EMSA: 20 mM HEPES-KOH pH 7.4, 100 mM NaCl, 1 mM MgCl2, 0.1% Tween20, 40 mM EDTA, 10% glycerol, 70 C; competition: 25 mM Tris-HCl pH 7.5, 150 mM KCl, 3 mM MgCl2, 0.01% NP-40, 1 mg/ml BSA, 1 mM DTT, 5% glycerol, RT
Conditions: protein: recombinant; tags: N-terminal GST (pGEX-4T-1, TEV site); label: 5' 32P

Binder: AUAGUGUAGU (ssRNA) [ZC3H7B motif RNA (AUAG)]
- binding result: binds
